{"source": "patent US12485192B2", "about": "“Cellular targeted label delivery system” (CELLIS AG, priority 2016, dated 2025)", "tested_on": "CD45+ leukocyte cells (macrophages, monocytes, lymphocytes, granulocytes)", "test": "Uptake of iron binding proteins by CD45+ leukocyte cells in culture", "format": "cell-based, mouse", "conditions": "incubation 1-4 hrs, 0.1-0.2 mg/ml protein solution, standard culture conditions; FIG. 5", "description": "(§1) Obtained cells are incubated in ferritin solution for a time and at the concentration sufficient to ensure proper ratio of ferritin/cell for their full load and also to ensure proper contrast content to obtain proper imaging). The time and concentration may vary depending on the number of molecules encapsulated/adsorbed into the ferritin cage, status of cell activation, condition and number of their intended administration.\nFor example, to ensure proper load with ferritins, cells are incubated for 1-4 hrs in ferritin solution 0.2 mg/ml in standard culture conditions. The frame of ferritin concentration may vary at least between 0.01 and 4 mg/ml as well as incubation time (5 min-6 hrs or more). Adjusting time and concentration of ferritin load to cells, the influence of ferritin and treatment conditions on cell viability should be minded.\nas §1, with “haemoglobin” for “ferritin”, “haemoglobin/cell” for “ferritin/cell”, “imaging.” for “imaging).”, “linked with” for “encapsulated/adsorbed into”, “haemoglobin molecule,” for “ferritin cage,”, “administration. […]” for “administration.”"}
{"molecule": "ferritins: recombinant mouse ferritin protein of SEQ ID NO: 4 expressed in E. coli (protein) MTTASPSQVRQNYHQDAEAAINRQINLELYASYVYLSMSCYFDRDDVALKNFAKYFLHQSHEEREHAEKLMKLQNQRGGRIFLQDIKKPDRDDWESGLNAMECALHLEKSVNQSLLELHKLATDKNDPHLCDFIETYYLSEQVKSIKELGDHVTNLRKMGAPEAGMAEYLFDKHTLGHGD", "values": [{"measurement": "uptake of iron binding protein by cells", "value": "very easily uptake"}]}
